According to paper doi:10.1101/2025.11.05.686826:

Molecular target: Prometheoarchaeum syntrophicum rubisco (Prometheoarchaeum syntrophicum)
Test: SEC-SAXS

- stoichiometry N: 2
Substance: Prometheoarchaeum syntrophicum rubisco (enzyme)
